Here are results for 10 molecules from PMC9960136, “VH-Based Mini Q-Body: A Novel Quench-Based Immunosensor” (Sensors (Basel, Switzerland), 2023).

Conditions in all cases: both partners purified
In assay [1] the target is T1, hen egg lysozyme (Gallus gallus (hen), UniProt P00698).
T1 construct: hen egg lysozyme (HEL), lysozyme C of the chicken; No supplier is named for HEL; also called HEL; antigen
Nature of the assay: ELISA; HEL or BSA (2 μg/mL in 100 μL PBS) coated on microplate wells, 16 h 4 °C; sdAb or mini Q-body added at 2 μg/mL, 1 h 37 °C; bound protein probed with anti-His-HRP.

The target of assay [2] is T1, hen egg lysozyme. Kind of assay: other fluorescence titration; de-quenching dose response: 10 ng mini Q-body in 250 μL PBST in a quartz cell; antigen added stepwise (0, 1 nM to 10 μM) at 5 min intervals; EC50 by 4-parameter logistic fit.
Another assay has as its target T2, bovine serum albumin (Bos taurus (bovine), UniProt P02769).
T2 construct: bovine serum albumin (BSA); No supplier is named for BSA; also called BSA; control antigen
Kind of assay: other fluorescence titration; de-quenching at one concentration: 10 ng mini Q-body in 250 μL PBST; 10 μM antigen added, measured after 5 min; BSA as control antigen.

T2 sequence (P02769 25-607): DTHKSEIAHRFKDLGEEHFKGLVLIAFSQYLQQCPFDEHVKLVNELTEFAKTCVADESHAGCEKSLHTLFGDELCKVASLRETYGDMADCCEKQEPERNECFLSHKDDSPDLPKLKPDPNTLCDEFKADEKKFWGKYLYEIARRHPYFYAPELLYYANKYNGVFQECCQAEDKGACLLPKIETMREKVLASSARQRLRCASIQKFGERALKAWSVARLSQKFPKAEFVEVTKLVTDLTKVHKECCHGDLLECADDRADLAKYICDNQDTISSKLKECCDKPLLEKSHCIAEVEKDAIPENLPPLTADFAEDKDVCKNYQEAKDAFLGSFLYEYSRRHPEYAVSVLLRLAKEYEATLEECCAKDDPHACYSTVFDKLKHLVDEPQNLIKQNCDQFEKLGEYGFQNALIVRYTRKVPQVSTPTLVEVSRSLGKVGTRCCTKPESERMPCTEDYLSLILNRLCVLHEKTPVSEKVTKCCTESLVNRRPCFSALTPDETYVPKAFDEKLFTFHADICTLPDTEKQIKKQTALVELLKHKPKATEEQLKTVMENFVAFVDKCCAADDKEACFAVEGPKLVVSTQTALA
T1 sequence (P00698 19-147): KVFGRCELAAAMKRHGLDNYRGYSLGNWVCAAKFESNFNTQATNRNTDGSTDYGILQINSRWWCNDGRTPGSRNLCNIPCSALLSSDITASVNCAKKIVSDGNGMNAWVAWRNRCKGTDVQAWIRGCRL

B1: TAMRA-C5-labeled C3 W47F mini Q-body (VHH)
VHH: EVQLLESGGGLVQPGGSLRLSCAASGFRDSDEDMGWVRQAPGKGLEFVSSIYGESGSTYYADSVKGRFTISRDNSKNTLYLQMNSLRAEDTAVYYCASYNYYYNVFDYWGQGTLVTVSS
notes: as the VH of m1 with W47F; Same chain as m10 with the dye on the Cys-tag; also called W47F (after labeling with TAMRA-C5); source: labeled with TAMRA-C5; not shown: His-tag, C-terminal, kept
As to B1, the binding result in the assay with hen egg lysozyme [1] is “binds”.

B2: C3 mini Q-body labeled with TAMRA-C6(6) (VHH)
VHH: EVQLLESGGGLVQPGGSLRLSCAASGFRDSDEDMGWVRQAPGKGLEWVSSIYGESGSTYYADSVKGRFTISRDNSKNTLYLQMNSLRAEDTAVYYCASYNYYYNVFDYWGQGTLVTVSS
notes: as the VH of m1; Same chain as m1 with the dye on the Cys-tag; not shown: His-tag, C-terminal, kept
What is called EC50 is the concentration at which the effect is half-maximal. Molecule B2 came in with an EC50 with hen egg lysozyme [2] of 362 nM. For the same molecule, in the assay with bovine serum albumin, the binding result is listed as “no binding”.

B3: C3 mini Q-body labeled with TAMRA-C0 (VHH)
VHH: EVQLLESGGGLVQPGGSLRLSCAASGFRDSDEDMGWVRQAPGKGLEWVSSIYGESGSTYYADSVKGRFTISRDNSKNTLYLQMNSLRAEDTAVYYCASYNYYYNVFDYWGQGTLVTVSS
notes: as for B2
The molecule B3 returned an EC50 with hen egg lysozyme [2] of 39 nM. In the assay with bovine serum albumin, the binding result was “no binding”.

B4: C3 mini Q-body labeled with rhodamine 6G (R6G-C5) (VHH)
VHH: EVQLLESGGGLVQPGGSLRLSCAASGFRDSDEDMGWVRQAPGKGLEWVSSIYGESGSTYYADSVKGRFTISRDNSKNTLYLQMNSLRAEDTAVYYCASYNYYYNVFDYWGQGTLVTVSS
notes: as the VH of m1; Same chain as m1 with the dye on the Cys-tag; also called R6G-C5 Q-body; Rhodamine 6G-labeled mini Q-body; not shown: His-tag, C-terminal, kept
The molecule B4 came in with an EC50 with hen egg lysozyme [2] of 397 nM. Further, the binding result with bovine serum albumin is “no binding”.

B5: C3 mini Q-body labeled with ATTO520 (VHH)
VHH: EVQLLESGGGLVQPGGSLRLSCAASGFRDSDEDMGWVRQAPGKGLEWVSSIYGESGSTYYADSVKGRFTISRDNSKNTLYLQMNSLRAEDTAVYYCASYNYYYNVFDYWGQGTLVTVSS
notes: as the VH of m1; Same chain as m1 with the dye on the Cys-tag; also called ATTO520-C2; not shown: His-tag, C-terminal, kept
With B5, in the assay with hen egg lysozyme [2], the EC50 is 276 nM. In addition, the binding result in the assay with bovine serum albumin is “no binding”.

B6: C3 mutant W47F (unlabeled) (VHH)
VHH: EVQLLESGGGLVQPGGSLRLSCAASGFRDSDEDMGWVRQAPGKGLEFVSSIYGESGSTYYADSVKGRFTISRDNSKNTLYLQMNSLRAEDTAVYYCASYNYYYNVFDYWGQGTLVTVSS
notes: as the VH of m1 with W47F; not shown: His-tag, C-terminal, kept
With B6, the binding result with hen egg lysozyme [1] is “binds”.

B7: C3 mini Q-body labeled with TAMRA-C6(5) (VHH)
VHH: EVQLLESGGGLVQPGGSLRLSCAASGFRDSDEDMGWVRQAPGKGLEWVSSIYGESGSTYYADSVKGRFTISRDNSKNTLYLQMNSLRAEDTAVYYCASYNYYYNVFDYWGQGTLVTVSS
notes: as for B2
As for B7, in the assay with hen egg lysozyme [2], the EC50 came out at 401 nM. Moreover, the binding result with bovine serum albumin was “no binding”.

B8: C3 mini Q-body labeled with TAMRA-C2 (VHH)
VHH: EVQLLESGGGLVQPGGSLRLSCAASGFRDSDEDMGWVRQAPGKGLEWVSSIYGESGSTYYADSVKGRFTISRDNSKNTLYLQMNSLRAEDTAVYYCASYNYYYNVFDYWGQGTLVTVSS
notes: as for B2
On to B8, for which, in the assay with hen egg lysozyme [2], the response was half-maximal at 50 nM (EC50). Moreover, the binding result with bovine serum albumin was “no binding”.

B9: C3 mini Q-body labeled with TAMRA-C5 (VHH)
VHH: EVQLLESGGGLVQPGGSLRLSCAASGFRDSDEDMGWVRQAPGKGLEWVSSIYGESGSTYYADSVKGRFTISRDNSKNTLYLQMNSLRAEDTAVYYCASYNYYYNVFDYWGQGTLVTVSS
notes: as the VH of m1; Same chain as m1 with the dye on the Cys-tag; also called TAMRA-C5-labeled C3 mini Q-body; TAMRA-labeled C3WT; not shown: His-tag, C-terminal, kept
B9: the EC50 with hen egg lysozyme [2] stood at 263 nM. In addition, the binding result with bovine serum albumin was “no binding”.

B10: C3 mutant W36F (unlabeled) (VHH)
VHH: EVQLLESGGGLVQPGGSLRLSCAASGFRDSDEDMGFVRQAPGKGLEWVSSIYGESGSTYYADSVKGRFTISRDNSKNTLYLQMNSLRAEDTAVYYCASYNYYYNVFDYWGQGTLVTVSS
notes: as the VH of m1 with W36F; not shown: His-tag, C-terminal, kept
For B10, the binding result with hen egg lysozyme [1] is “no binding (tested: 2 μg/mL)”.
